Key:
[1] = biological target: biotinylated His-tagged TGF-β1 LAP C4S (Homo sapiens (Human)) (UniProt P01137); experiment: ELISA, neutravidin plate with biotinylated His-tagged TGF-β1 LAP C4S; antibody dilution 1:1,000; fluorescent secondary detection
[2] = biological target: biotinylated His-tagged TGF-β1 LAP C4S (Homo sapiens (Human)) (UniProt P01137); experiment: ELISA, neutravidin plate with biotinylated His-tagged TGF-β1 LAP C4S; antibody dilution 1:10,000; fluorescent secondary detection
[3] = biological target: biotinylated His-tagged TGF-β1 LAP C4S (Homo sapiens (Human)) (UniProt P01137); experiment: ELISA, neutravidin plate with biotinylated His-tagged TGF-β1 LAP C4S; antibody dilution 1:5,000; fluorescent secondary detection

biotinylated His-tagged TGF-β1 LAP C4S (Homo sapiens (Human)), sequence (P01137 other isoform, or with tags, fused parts or gaps limits assumed): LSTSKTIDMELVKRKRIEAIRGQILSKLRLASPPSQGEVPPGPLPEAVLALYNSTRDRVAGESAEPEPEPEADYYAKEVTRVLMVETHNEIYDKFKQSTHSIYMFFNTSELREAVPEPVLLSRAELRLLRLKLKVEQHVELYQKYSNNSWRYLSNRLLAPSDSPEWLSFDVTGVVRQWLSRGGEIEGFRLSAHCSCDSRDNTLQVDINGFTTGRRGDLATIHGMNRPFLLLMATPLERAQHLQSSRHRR

RFU [1]: 218 RFU
RFU [2]: 198 RFU
RFU [3]: 214 RFU
B1: 1D11 antibody (mouse monoclonal anti-TGF-β1, 2 and 3 antibody, R&D Systems, Minneapolis, Minn.) (antibody, from another filing, V domains shown)
VH: QVQLQQSGPELVRPGASVKLSCKASGYIFITYWMNWVKQRPGQGLEWIGQIFPASGSTNYNEMFEGKATLTVDTSSSTAYMQLSSLTSEDSAVYYCARGDGNYALDAMDYWGQGTSVTVSS
VL: DIVLTQSPASLAVSLGQRATISCRASESVDSYGNSFMHWYQQKSGQPPKLLIYLASNLESGVPARFSGSGSRTDFTLTIDPVEADDAATYYCQQNNEDPLTFGAGTKLEIK

Reference: US20170073406A1
